In assay [1] the target is EV71 2C 116–329 (enterovirus 71) (UniProt Q66478). The experiment in a line: SEC.
In assay [2] the target is EV71 2C 116–329 E325A (enterovirus 71). The experiment in a line: SEC. A general note: In gel filtration, larger molecules generally elute earlier.

The term stoichiometry N denotes a count of units in the complex or per binding partner. As for “EV71 2C 116–329 (from UniProt Q66478 117-330) (domain or fragment)”, the stoichiometry N in assay [1] is 4.
The substance “EV71 2C 116–329 E325A (domain or fragment)” gave a stoichiometry N in assay [2] of 2.

(Values after PMC5409451.)
